Patent US20140120095A1 (Boehringer Ingelheim, published 2014)
Residue numbers refer to the chain shown, from its start.

T1: cynomolgus DLL4 overexpressed on cells (cynomolgus, UniProt Q9NR61 27-685 (human entry))
T1 construct: also called cyno DII4; cDLL4
T1 chain: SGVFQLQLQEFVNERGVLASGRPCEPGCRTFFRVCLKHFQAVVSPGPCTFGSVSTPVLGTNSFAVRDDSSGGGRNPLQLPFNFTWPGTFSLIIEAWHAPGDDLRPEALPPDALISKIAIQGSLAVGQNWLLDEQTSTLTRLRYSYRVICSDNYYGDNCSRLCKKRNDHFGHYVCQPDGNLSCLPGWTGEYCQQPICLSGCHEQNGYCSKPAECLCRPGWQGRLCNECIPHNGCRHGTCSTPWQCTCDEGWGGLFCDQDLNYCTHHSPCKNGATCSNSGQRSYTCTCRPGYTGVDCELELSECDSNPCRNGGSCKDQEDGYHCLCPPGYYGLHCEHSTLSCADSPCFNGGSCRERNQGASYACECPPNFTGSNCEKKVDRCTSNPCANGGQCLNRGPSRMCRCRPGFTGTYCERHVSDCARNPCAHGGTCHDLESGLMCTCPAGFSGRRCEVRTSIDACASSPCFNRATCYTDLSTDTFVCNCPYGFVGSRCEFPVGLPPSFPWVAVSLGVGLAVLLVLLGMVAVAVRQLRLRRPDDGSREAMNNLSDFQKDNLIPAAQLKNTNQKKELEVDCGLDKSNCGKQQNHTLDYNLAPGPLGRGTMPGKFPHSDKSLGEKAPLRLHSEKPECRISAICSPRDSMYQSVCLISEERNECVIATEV

B1: DLLBII58A11 (VHH)
VHH: EVQLVESGGGLVQAGGSLRLSCTTSERTVSRYSMGWFRQAPGKEREAVATISWSGDSTYYADSVKGRFTISRDNTKNTLYLQIDSLKPEDTAVYYCVAKPNLKYGSYWPPRGYDYWGQGTQVTVSS
B2: DLLBII95F02 (VHH)
VHH: EVQLVESGGGSVQAGGSLRLSCAASGRTFSSYAMGWFRQAPGKEREFVAAINWSGGYTYYADSVRGRFTISRDNAKNTVYLQMNSLKPEDTAVYYCAAPAPGSSGYEYDYWGQGTQVTVSS
B3: DLLBII83G01 (VHH)
VHH: EVQLVESGGGLVQAGGSLRLSCAASGRTFSNYIMGWFRQAPGKEREFVAGISRYADYTGYADSVKGRFTISRDNVKNTVYLRMNSLKPDDTAVYYCAANEGYCSGYGCYEDSGQYDYWGQGTQVTVSS
B4: DLLBII019 (VHH, not shown: small tags and cut ends)
VHH: EVQLVESGGGLVQPGGSLRLSCAASGFTFGSYDMSWVRRSPGKGPEWVSSINSGGGSTYYADYVKGRFTISRDNAKNTLYLQMNSLRPEDTAVYYCAADRYIWARQGEYWGAYEYDYWGQGTLVTVSS
B5: DLLBII020 (VHH, not shown: small tags and cut ends)
VHH: B4 VHH with R39Q
B6: DLLBII134D10 (VHH, not shown: small tags and cut ends)
VHH: B4 VHH with F29I, A61T, R87K, E114A, L123Q
B7: DLLBII022 (VHH, not shown: small tags and cut ends)
VHH: B4 VHH with R39Q, S40A
B8: DLLBII021 (VHH, not shown: small tags and cut ends)
VHH: B4 VHH with S40A
B9: DLLBII104C04 (VHH)
VHH: EVQLVESGGGLVQAGGSLRLSCAAAGSTFSSYVMGWYRQAPGKQRELVAHISTRGITYYADSVKGRFTISRDNAKNTMYLQMNSLKPEDTAVYYCNTRRNFLSNYWGQGTQVTVSS
B10: DLLBII56H08 (VHH)
VHH: EVQLVESGGGLVQPGGSLRLSCAASGFTFDDYAIGWFRQAPGKEPEEISCISSSGGITYYADSVKGRFTISRDNAKNTVYLQMNSLKPEDTAVYYCATPGIAACRGIHYTGQGTQVTVSS

Assays:
recombinant human DLL4 [1] = molecular target: T2, recombinant human DLL4 (human, UniProt Q9NR61 25-522); experiment: Biacore off-rate, periplasmic extract
T2 construct: also called rhDLL4; hDLL4

[2] = molecular target: T3, human DLL4 overexpressed on cells (human, UniProt Q9NR61 27-685); experiment: FMAT, labelled hNotch1-Fc on CHO-hDLL4, periplasmic extract
T3 construct: full length human DLL4 on CHO or HEK293 cells; also called CHO-hDLL4; CHO-hDII4
Source text: (§1) All calculations are based on the FL1_total signal which comprises the average of the fluorescence per well times the number of counts per well.

[3] = molecular target: T4, mouse DLL4 overexpressed on cells (mouse, UniProt Q9JI71 27-686); experiment: FMAT, labelled hNotch1-Fc on CHO-mDLL4, periplasmic extract
T4 construct: whole, on cells; also called CHO-mDLL4; CHO-mDII4
Source text: as §1

[4] = molecular target: T5, recombinant human DLL4 (C-terminally His-tagged extracellular domain, R&D Systems) (human, UniProt Q9NR61 25-522, biotinylated in the competition ELISA); experiment: SPR (Biacore), recombinant human DLL4
T5 construct: also called rhDLL4; hDLL4
Experimental: (§2) Kinetic analysis to determine the affinity of the DII4-VHH interaction is performed by Surface Plasmon Resonance (SPR) on a Biacore T100 instrument. […] Purified VHHs or Fab fragment are injected for 2 minutes at different concentrations (between 10 and 300 nM) and allowed to dissociate for 20 min at a flow rate of 45 μl/min. Between sample injections, the surfaces are regenerated with 10 mM glycine pH1.5 and 100 mM HCl. HBS-N (Hepes buffer pH7.4) is used as running buffer. If possible, data are evaluated by fitting a 1:1 interaction model (Langmuir binding) onto the binding curves. The affinity constant KD is calculated from resulting association and dissociation rate constants (kₐ) and […].

[5] = molecular target: T6, human DLL4 expressed on cells (CHO-hDLL4; HEK293-hDLL4) (human, UniProt Q9NR61 27-685); experiment: competition FMAT, labelled hNotch1-Fc on CHO-hDLL4 cells
T6 construct: full length human DLL4 overexpressed on CHO cells (FMAT, FACS) or HEK293 cells (reporter assay)

[6] = molecular target: T6, human DLL4 expressed on cells …; experiment: cell-based or functional assay
[7] = molecular target: T5, recombinant human DLL4 (C-terminally …); experiment: competition ELISA hDLL4/hNotch1-Fc; summary table
[8] = molecular target: T5, recombinant human DLL4 (C-terminally …); experiment: competition ELISA, biotinylated hDLL4 to coated hNotch1-Fc
recombinant human DLL4 [9] = molecular target: T2, recombinant human DLL4; experiment: binding ELISA, coated rhDLL4
Experimental: (§3) In order to determine cross-reactivity to mouse DII4 a binding ELISA is performed. […] Wells are blocked with a casein solution (1% in PBS). VHHs are applied as dilution series and binding is detected using a mouse anti-myc (Roche) and an anti-mouse-AP conjugate (Sigma, St Louis, Mo., USA) (FIG. 7 A-H). As reference, binding to human DII4 is measured.

recombinant mouse DLL4 = molecular target: T7, recombinant mouse DLL4 (mouse, UniProt Q9JI71 27-532); experiment: binding ELISA, coated rmDLL4
T7 construct: extracellular domain; also called rmDLL4; mDLL4
Experimental: as §3

[10] = molecular target: T3, human DLL4 overexpressed on cells; experiment: competitive FMAT, hNotch1-Fc on CHO-hDLL4
[11] = molecular target: T4, mouse DLL4 overexpressed on cells; experiment: competitive FMAT, hNotch1-Fc on CHO-mDLL4
recombinant human DLL4 [12] = molecular target: T2, recombinant human DLL4; experiment: competition AlphaScreen, biot-hDLL4/hNotch1-Fc
Experimental: In brief, 1 nM biotinylated human DII4 is captured on streptavidin-coated donor beads (20 μg/mL), while 0.4 nM of the receptor human Notch1 (as a Fc fusion protein) is captured on anti-human Fc VHH-coated acceptor beads (20 μg/mL). Both loaded beads are incubated together with a dilution range of the competing VHH (FIG. 4 A-E).

recombinant human DLL4 [13] = molecular target: T2, recombinant human DLL4; experiment: SPR Biacore T100, hDLL4 on chip, VHH/Fab injected
Experimental: as §2

[14] = molecular target: T3, human DLL4 overexpressed on cells; experiment: FACS titration on HEK293-hDLL4 cells, MCF
Experimental: (§4) In order to determine the cynomologus cross-reactivity of the VHHs, a FACS binding experiment is performed. Cynomolgus DII4 expressing HEK293 cells (transient or stable transfection) are used for a titration binding experiment of the VHHs. After a 30 minutes incubation on ice, all samples are washed and detection is performed by applying anti-c-myc˜Alexa647 (Santa Cruz Biotechnology, Santa Cruz, Calif., USA). Human and mouse DII4 overexpressing HEK293 cells are taken as reference. The mean MCF value is determined on the FACS Array and used for calculation of the EC₅₀ value (see FIG. 9 A-E).

[15] = molecular target: T1, cynomolgus DLL4 overexpressed on cells; experiment: FACS titration on HEK293-cDLL4 cells, MCF
Experimental: as §4

recombinant human DLL4 [16] = molecular target: T2, recombinant human DLL4; experiment: competition ELISA, biot-hDLL4 to coated hNotch1-Fc
Source text: Residual binding of biotinylated human DII4 is detected using horseradish peroxidase (HRP) conjugated extravidin (Sigma, St. Louis, Mo., USA) (FIG. 3 A-C). Human DII4 is biotinylated as described above.

human Jagged-1 = molecular target: T8, human Jagged-1 (human, UniProt P78504 34-1067, limits assumed); experiment: binding ELISA on coated recombinant human Jagged-1, OD 405 nm
T8 construct: also called hJagged-1; hJAG1
Experimental: Absence of binding to homologous ligands human DLL1 and human Jagged-1 is assessed via solid phase binding assay (ELISA). In brief, human DLL1 (Alexis, San Diego, Calif., USA) and human Jagged-1 (Alexis, San Diego, Calif., USA) are coated overnight at 4° C. at 1 μg/mL in a 96-well MaxiSorp plate (Nunc, Wiesbaden, Germany). Wells are blocked with a casein solution (1% in PBS). VHHs are applied as dilution series and binding is detected using a mouse anti-myc (Roche) and an anti-mouse-AP conjugate (Sigma, St. Louis, Mo., USA).

T4 sequence (Q9JI71 27-686): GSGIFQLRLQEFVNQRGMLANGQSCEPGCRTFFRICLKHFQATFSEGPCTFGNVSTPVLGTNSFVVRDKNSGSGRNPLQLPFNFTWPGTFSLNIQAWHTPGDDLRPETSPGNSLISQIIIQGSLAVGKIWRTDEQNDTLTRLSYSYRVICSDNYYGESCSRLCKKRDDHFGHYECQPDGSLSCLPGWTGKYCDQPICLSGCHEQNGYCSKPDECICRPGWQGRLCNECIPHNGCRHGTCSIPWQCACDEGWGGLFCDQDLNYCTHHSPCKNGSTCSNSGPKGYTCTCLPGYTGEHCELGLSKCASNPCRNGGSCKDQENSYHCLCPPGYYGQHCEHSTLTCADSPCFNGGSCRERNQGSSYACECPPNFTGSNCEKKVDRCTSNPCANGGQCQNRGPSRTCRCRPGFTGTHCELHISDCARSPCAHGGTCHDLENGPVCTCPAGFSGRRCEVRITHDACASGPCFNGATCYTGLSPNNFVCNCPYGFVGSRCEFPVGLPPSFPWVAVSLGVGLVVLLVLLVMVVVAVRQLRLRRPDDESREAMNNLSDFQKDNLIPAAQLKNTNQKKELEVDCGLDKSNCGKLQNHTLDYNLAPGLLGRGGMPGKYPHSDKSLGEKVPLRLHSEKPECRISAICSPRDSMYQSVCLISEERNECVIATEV
T7 sequence (Q9JI71 27-532): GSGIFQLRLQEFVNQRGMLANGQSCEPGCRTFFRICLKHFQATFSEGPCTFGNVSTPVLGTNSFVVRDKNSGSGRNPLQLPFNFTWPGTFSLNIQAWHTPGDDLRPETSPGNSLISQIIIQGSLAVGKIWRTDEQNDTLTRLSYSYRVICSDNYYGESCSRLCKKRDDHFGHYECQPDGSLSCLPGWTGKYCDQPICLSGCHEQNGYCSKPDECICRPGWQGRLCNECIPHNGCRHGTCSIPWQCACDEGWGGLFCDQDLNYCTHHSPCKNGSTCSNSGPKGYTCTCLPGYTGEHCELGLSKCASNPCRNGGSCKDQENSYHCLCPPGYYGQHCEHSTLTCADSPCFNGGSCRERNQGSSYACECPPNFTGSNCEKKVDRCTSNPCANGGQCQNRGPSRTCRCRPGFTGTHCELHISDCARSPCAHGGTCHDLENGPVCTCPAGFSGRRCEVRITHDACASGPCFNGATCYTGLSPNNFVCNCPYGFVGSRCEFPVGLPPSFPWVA

| Binder | koff (recombinant human DLL4 [1]) [s⁻¹] | % inh [2] [%] | % inh [3] [%] | Kd [4] [nM] | koff [4] [s⁻¹] | kon [4] [M⁻¹ s⁻¹] | IC50 [5] [nM] | also measured |
| --- | --- | --- | --- | --- | --- | --- | --- | --- |
| B1 | 0.0016 | 95 | 73 |  |  |  |  |  |
| B2 | 0.00067 | 81 | 71 |  |  |  |  |  |
| B3 | 0.00041 | 87 | 93 |  |  |  |  |  |
| B4 |  |  |  | 1.3 | 0.00074 | 570000 | 3 |  |
| B5 |  |  |  | 27 | 0.0093 | 340000 | 44.6 |  |
| B6 |  |  |  |  |  |  |  | IC50, DLL4-mediated reporter assay [6]: 18 nM; IC50 [7]: 1.3 nM; IC50 [8]: 1.3 nM |
| B7 |  |  |  | 46 | 0.022 | 470000 | 95.4 |  |
| B8 |  |  |  | 1 | 0.00057 | 560000 | 2.1 |  |
| B9 | 0.001 | 87 | 83 |  |  |  |  |  |
| B10 |  |  |  |  |  |  |  | EC50 (recombinant human DLL4 [9]): 4.1 nM; EC50 (recombinant mouse DLL4): 8.7 nM; IC50 [10]: 22 nM; IC50 [11]: 33.7 nM; IC50 (recombinant human DLL4 [12]): 1.6 nM; Kd (recombinant human DLL4 [13]): 9.4 nM; koff (recombinant human DLL4 [13]): 0.0011 s⁻¹; kon (recombinant human DLL4 [13]): 120000 M⁻¹ s⁻¹; EC50 (read off the curve) [14]: ~7 nM; EC50 (read off the curve) [15]: ~4 nM; IC50 (recombinant human DLL4 [16]): 6.9 nM; binding result (human Jagged-1): no binding (tested: 2.5e-7 M) |
